Measurements: the supplement of paper PMC9112550, “Optimization of the antimicrobial peptide Bac7 by deep mutational scanning” (BMC Biology, 2022)

Test system: Escherichia coli TOP10
Assay: shrunken log2 fold change of peptide-encoding DNA abundance (4.5 h post-induction vs induction); higher = less antimicrobial activity (less host growth inhibition)
Conditions: time post-induction: 4.5 h; library: site-saturation at positions 5, 18, 19, 20
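Also: peptides expressed intracellularly from a pBAD plasmid library in pooled LB shake-flask culture, induced with 0.3% L-arabinose, DNA abundance read by NGS, three biological replicates, DESeq2 with apeglm shrinkage.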

Sequence | shrunken log2 fold change
RRIRRRPPRLPRPRPRPTGRPRP | 0.489
RRIRTRPPRLPRPRPRPTRKPRP | 0.443
RRIRPRPPRLPRPRPRPDNYPRP | -0.496
RRIRLRPPRLPRPRPRPHNWPRP | -0.0581
RRIRERPPRLPRPRPRPKPMPRP | 0.21
RRIRMRPPRLPRPRPRPYLMPRP | -0.357
RRIRWRPPRLPRPRPRPIKPPRP | -0.0158
RRIRARPPRLPRPRPRPRYRPRP | 0.165
RRIRARPPRLPRPRPRPETSPRP | 0.912
RRIRNRPPRLPRPRPRPMKIPRP | -0.121
RRIRERPPRLPRPRPRPLQFPRP | -0.468
RRIRHRPPRLPRPRPRPFYCPRP | -0.946
RRIRQRPPRLPRPRPRPLGQPRP | 0.125
RRIRHRPPRLPRPRPRPQNIPRP | -0.269
RRIRKRPPRLPRPRPRPNFFPRP | 0.0314
RRIRGRPPRLPRPRPRPPKVPRP | 0.762
RRIRWRPPRLPRPRPRPKPYPRP | 3.05
RRIRARPPRLPRPRPRPAHHPRP | 0.123
RRIRVRPPRLPRPRPRPMNVPRP | -0.0915
RRIRPRPPRLPRPRPRPNLSPRP | -0.168
RRIRGRPPRLPRPRPRPRYQPRP | 0.615
RRIRNRPPRLPRPRPRPPSGPRP | -0.0646
RRIRMRPPRLPRPRPRPRVEPRP | 0.379
RRIRHRPPRLPRPRPRPEGIPRP | 0.0992
RRIRERPPRLPRPRPRPYMCPRP | -0.216

Sequence | shrunken log2 fold change
RRIRCRPPRLPRPRPRPYMMPRP | -0.293
RRIRGRPPRLPRPRPRPFPCPRP | -0.0294
RRIRLRPPRLPRPRPRPHFLPRP | -0.499
RRIRKRPPRLPRPRPRPTGMPRP | 0.128
RRIRCRPPRLPRPRPRPWGHPRP | -0.092
RRIRCRPPRLPRPRPRPMAAPRP | 0.476
RRIRHRPPRLPRPRPRPKRNPRP | 0.0354
RRIRKRPPRLPRPRPRPYCQPRP | -0.773
RRIRPRPPRLPRPRPRPNDIPRP | -0.632
RRIRMRPPRLPRPRPRPSEDPRP | 0.974
RRIRKRPPRLPRPRPRPYNNPRP | -0.286
RRIRWRPPRLPRPRPRPCCPPRP | -0.206
RRIRVRPPRLPRPRPRPHPNPRP | -0.00326
RRIRGRPPRLPRPRPRPMRPPRP | 1.3
RRIRMRPPRLPRPRPRPEWRPRP | 0.829
RRIRCRPPRLPRPRPRPYCYPRP | -0.669
RRIRRRPPRLPRPRPRPPEVPRP | 0.821
RRIRLRPPRLPRPRPRPPSIPRP | -0.0597
RRIRDRPPRLPRPRPRPVLPPRP | 0.0231
RRIRARPPRLPRPRPRPAKYPRP | -0.156
RRIRRRPPRLPRPRPRPVRGPRP | 0.805
RRIRRRPPRLPRPRPRPVVQPRP | 0.534
RRIRGRPPRLPRPRPRPAMMPRP | 0.51
RRIRTRPPRLPRPRPRPNGIPRP | 0.0301
RRIRQRPPRLPRPRPRPTCVPRP | -0.442

Sequence | shrunken log2 fold change
RRIRERPPRLPRPRPRPCAFPRP | -0.315
RRIRRRPPRLPRPRPRPYACPRP | -0.207
RRIRTRPPRLPRPRPRPGAEPRP | 0.25
RRIRQRPPRLPRPRPRPKQRPRP | 0.0443
RRIRGRPPRLPRPRPRPMISPRP | 1.18
RRIRSRPPRLPRPRPRPKNSPRP | -0.431
RRIRPRPPRLPRPRPRPYWSPRP | -0.324
RRIRYRPPRLPRPRPRPCQPPRP | -0.354
RRIRDRPPRLPRPRPRPEHEPRP | 0.017
RRIRFRPPRLPRPRPRPFVTPRP | -0.442
RRIRSRPPRLPRPRPRPGTSPRP | -0.167
RRIRERPPRLPRPRPRPAMEPRP | -0.0417
RRIRVRPPRLPRPRPRPMTKPRP | 0.0648
RRIRCRPPRLPRPRPRPNTTPRP | -0.291
RRIRHRPPRLPRPRPRPDEFPRP | -0.0223
RRIRFRPPRLPRPRPRPNEMPRP | -0.0729
RRIRLRPPRLPRPRPRPHSQPRP | -0.0709
RRIRWRPPRLPRPRPRPPNCPRP | -0.11
RRIRFRPPRLPRPRPRPRGLPRP | -0.0929
RRIRQRPPRLPRPRPRPTMLPRP | -0.339
RRIRPRPPRLPRPRPRPGSTPRP | 0.123
RRIRERPPRLPRPRPRPWQSPRP | -0.00865
RRIRKRPPRLPRPRPRPSTEPRP | 0.136
RRIRARPPRLPRPRPRPDYFPRP | -0.0428
RRIRDRPPRLPRPRPRPEYYPRP | -0.00627

Sequence | shrunken log2 fold change
RRIRSRPPRLPRPRPRPSDCPRP | -0.79
RRIRVRPPRLPRPRPRPFESPRP | -0.0298
RRIRFRPPRLPRPRPRPWCIPRP | -0.369
RRIRRRPPRLPRPRPRPRWAPRP | 0.206
RRIRYRPPRLPRPRPRPWSRPRP | -0.205
RRIRSRPPRLPRPRPRPYICPRP | -0.959
RRIRIRPPRLPRPRPRPRWPPRP | 0.379
RRIRWRPPRLPRPRPRPNSLPRP | -0.123
RRIRCRPPRLPRPRPRPFPIPRP | -0.305
RRIRYRPPRLPRPRPRPNVGPRP | -0.00664
RRIRMRPPRLPRPRPRPPRKPRP | 1.49
RRIRCRPPRLPRPRPRPRYMPRP | -0.402
RRIRTRPPRLPRPRPRPIQRPRP | 0.0582
RRIRSRPPRLPRPRPRPRPLPRP | 0.171
RRIRFRPPRLPRPRPRPGCDPRP | 0.106
RRIRGRPPRLPRPRPRPRHKPRP | 0.149
RRIRYRPPRLPRPRPRPELPPRP | 0.0248
RRIRNRPPRLPRPRPRPGMTPRP | -0.257
RRIRGRPPRLPRPRPRPNTFPRP | 0.00502
RRIRMRPPRLPRPRPRPSNWPRP | 0.225
RRIRQRPPRLPRPRPRPHFIPRP | -0.328
RRIRVRPPRLPRPRPRPPNRPRP | 0.144
RRIRQRPPRLPRPRPRPTTDPRP | -0.0492
RRIRGRPPRLPRPRPRPPTLPRP | 0.596
RRIRKRPPRLPRPRPRPCQPPRP | 0.227

Sequence | shrunken log2 fold change
RRIRDRPPRLPRPRPRPTNTPRP | -0.142
RRIRPRPPRLPRPRPRPICIPRP | -0.158
RRIRTRPPRLPRPRPRPKNWPRP | 0.183
RRIRMRPPRLPRPRPRPPKMPRP | 0.477
RRIRYRPPRLPRPRPRPEYLPRP | -0.139
RRIRSRPPRLPRPRPRPNLIPRP | -0.74
RRIRFRPPRLPRPRPRPIPHPRP | -0.31
RRIRLRPPRLPRPRPRPYQCPRP | -0.373
RRIRGRPPRLPRPRPRPPCLPRP | 0.503
RRIRSRPPRLPRPRPRPPIQPRP | 0.0395
RRIRCRPPRLPRPRPRPFLQPRP | 1.41
RRIRDRPPRLPRPRPRPIGIPRP | 0.00854
RRIRSRPPRLPRPRPRPVVKPRP | -0.14
RRIRIRPPRLPRPRPRPGAQPRP | -0.0304
RRIRERPPRLPRPRPRPPKEPRP | 0.0608
RRIRCRPPRLPRPRPRPPNHPRP | -0.104
RRIRRRPPRLPRPRPRPKNGPRP | 0.259
RRIRVRPPRLPRPRPRPFWPPRP | 0.162
RRIRPRPPRLPRPRPRPMVGPRP | 0.265
RRIRRRPPRLPRPRPRPDVCPRP | -0.000628
RRIRPRPPRLPRPRPRPERVPRP | 0.451
RRIRKRPPRLPRPRPRPALYPRP | 0.453
RRIRVRPPRLPRPRPRPLGWPRP | 0.467
RRIRARPPRLPRPRPRPTYGPRP | -0.0482
RRIRTRPPRLPRPRPRPRECPRP | 0.00425

Sequence | shrunken log2 fold change
RRIRHRPPRLPRPRPRPITMPRP | -0.18
RRIRYRPPRLPRPRPRPTQVPRP | 0.188
RRIRGRPPRLPRPRPRPAPHPRP | 0.95
RRIRWRPPRLPRPRPRPQVYPRP | -0.015
RRIRWRPPRLPRPRPRPSRVPRP | 0.253
RRIRQRPPRLPRPRPRPSWLPRP | -0.213
RRIRGRPPRLPRPRPRPCKGPRP | -0.0939
RRIRERPPRLPRPRPRPIVVPRP | -0.29
RRIRLRPPRLPRPRPRPHTTPRP | -0.368
RRIRYRPPRLPRPRPRPTHIPRP | -1.04
RRIRNRPPRLPRPRPRPMIMPRP | -1.96
RRIRFRPPRLPRPRPRPACGPRP | 0.0797
RRIRQRPPRLPRPRPRPGHHPRP | 0.245
RRIRARPPRLPRPRPRPYQFPRP | -0.34
RRIRWRPPRLPRPRPRPHCMPRP | 0.0179
RRIRIRPPRLPRPRPRPFKYPRP | -0.0899
RRIRDRPPRLPRPRPRPVNRPRP | -0.131
RRIRFRPPRLPRPRPRPSTFPRP | -0.945
RRIRHRPPRLPRPRPRPNSHPRP | -1.09
RRIRQRPPRLPRPRPRPSKNPRP | 0.0658
RRIRARPPRLPRPRPRPWCTPRP | -0.284
RRIRLRPPRLPRPRPRPLYFPRP | -0.646
RRIRKRPPRLPRPRPRPWFNPRP | -0.209
RRIRQRPPRLPRPRPRPEVQPRP | -0.0138
RRIRRRPPRLPRPRPRPMKAPRP | 0.0483
